Source: patent US20250171535A1, “COMPOSITIONS AND METHODS FOR DEPLETION OF DISEASED HEMATOPOIETIC STEM CELLS” (Jasper Therapeutics, Inc., priority 2022, published 2025)

Experiments:
[1] = test system: diseased HSC cells (CD34+CD45RA-CD117+ HSCs); experiment: Clinical study: depletion of diseased stem and progenitor cells in higher risk MDS or AML patients; assay type: in vivo, human; conditions: nine higher risk MDS or AML patients; single dose 0.6 mg/kg intravenously; 10-14 days post-treatment
Method: FIG. 2 is a bar graph of the percent (%) depletion of CD34+CD45RA-CD117+ cells in nine myelodysplastic syndrome (MDS) and acute myeloid leukemia (AML) patients treated with a single dose of anti-c-kit antibody, measured 10-14 days post-treatment.
(§1) Nine patients having either higher risk MDS or AML were treated with a single dose of 0.6 mg/kg JSP191 administered intravenously.

[2] = Clinical study: safety and tolerability in higher risk MDS or AML patients; assay type: in vivo, human; conditions: 0.6 mg/kg intravenously
Method: as §1

Substance: JSP191: aglycosylated IgG1 humanized anti-c-kit (CD117) antibody, humanized form of murine SR1; heavy chain SEQ ID NO: 2, light chain SEQ ID NO: 3
- depletion of diseased HSC cells (CD34+CD45RA-CD117+ HSCs) [1]: 30-95%
- JSP191-related infusion reactions [2]: No significant JSP191-related infusion reactions were observed
- adverse events [2]: no significant adverse events were observed
- safety and tolerability ([2]; ongoing clinical trial): safe and well-tolerated
